T1: target peptide
T1 chain: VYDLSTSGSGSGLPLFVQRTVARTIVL


Experiments:
his-catActRIIB kinase [1] = molecular target: T2, his-catActRIIB kinase (Homo sapiens, UniProt Q13705); test: Scintillation method kinase assay (TCA precipitation, filter plate); type: biochemical; conditions: target peptide 176 μM or MBP 2 μM, 10 μM ATP, [33P]-ATP, 80 min, room temperature
T2 construct: His tag
Description: A series of reaction mixtures comprising 25 mM HEPES (pH 7.3), 3 mM MgCl2, 1 mM MnCl2, 0.1 mM EDTA, 1 mM DTT, 0.2 mM sodium orthovanadate, 100 μg/ml BSA, 10 μM ATP, 0.25 μCi [^33P]y-ATP, and 16.5 μg/ml his-catActRIIB kinase was run in a total of 100 μl directly in a Durapore (Millipore) filter plate for 80 min at room temperature. The reaction was stopped by addition of an equal volume of ice cold TCA (10% or 25% v/v). After one hour at 4° C., the precipitate was collected under vacuum. The precipitate was washed five times with cold TCA. After drying overnight, scintillant was added to the well and plates counted in a Microbeta 1450 Trilux in the Paralux mode. Different reactions included either the target peptide (176 μM), MBP (2 μM), or no substrate.

his-catActRIIB kinase [2] = molecular target: T2, his-catActRIIB kinase; test: Autoradiographic kinase assay method (substrate phosphorylation); type: biochemical; conditions: 1 mg/ml target peptide or 2.5 μM MBP, 10 μM ATP, [32P]-ATP, 30 minutes, ambient temperature
Description: A 20 μl reaction mixture comprising 2.5 μg/ml his-catActRIIB kinase, 1 mg/ml target peptide or 2.5 μM myelin basic protein (MBP), 10 μM ATP, 10 μCi [^32P]y-ATP (6000 Ci/mmol), 1 mg/ml bovine serum albumin (BSA), and 5 mM sodium orthovanadate in 25 mM HEPES (pH 7.3) was run for 30 minutes at ambient temperature. The reaction was stopped by adding ⅓ volume of 3× Laemmli buffer with β-mercaptoethanol and trace bromphenol blue (188 mM Tris pH 6.8, 3% SDS, 24% glycerol, 25% v/v, β-mercaptoethanol). The stopped reaction was loaded directly onto a 18% polyacrylamide/tris/glycine gel without boiling. The gel was run at about 100 volts to permit proper separation, washed for five minutes in water, and equilibrated for five minutes in semi-dry blotting buffer (48 mM Tris base, 39 mM glycine, 20% methanol, 0.375% SDS). Reaction products were then blotted onto a nitrocellulose filter for 48 minutes at 20 volts in a Bio-Rad semi-dry blotting apparatus and visualized and/or quantitated by autoradiography.

target peptide = molecular target: T1, target peptide

| signal from labelled substrate by scintillation counting (his-catActRIIB kinase [1]) | phosphorylation of substrate, labelled band visualized by autoradiography (his-catActRIIB kinase [2]) | Molecule | phosphorylation of substrate, [32P]ATP autoradiography after gel electrophoresis and blotting (target peptide) | phosphorylation of substrate, [33P]ATP, TCA precipitation on filter plate, scintillation counting (target peptide) | phosphorylation of substrate, [32P]ATP autoradiography after gel electrophoresis and blotting (myelin basic protein) | phosphorylation of substrate, [33P]ATP, TCA precipitation on filter plate, scintillation counting (myelin basic protein) |
| --- | --- | --- | --- | --- | --- | --- |
| performed very well | labelled target peptide | H2N-Val-Tyr-Asp-Leu-Ser-Thr-Ser-Gly-Ser-Gly-Ser-Gly-Leu-Pro-Leu-Phe-Val-Gln-Arg-Thr-Val-Ala-Arg-Thr-Ile-Val-Leu-COOH (H-VYDLSTSGSGSGLPLFVQRTVARTIVL-OH; not fully specified) [target peptide, 27 amino acid substrate peptide for the ActRIIB kinase assay] |  |  |  |  |
|  |  | his-catActRIIB kinase (protein) YGHVDIHEDPGPPPPSPLVGLKPLQLLEIKARGRFGCVWKAQLMNDFVAVKIFPLQDKQSWQSEREIFSTPGMKHENLLQFIAAEKRGSNLEVELWLITAFHDKGSLTDYLKGNIITWNELCHVAETMSRGLSYLHEDVPWCRGEGHKPSIAHRDFKSKNVLLKSDLTAVLADFGLAVRFEPGKPPGDTHGQVGTRRYMAPEVLEGAINFQRDAFLRIDMYAMGLVLWELVSRCKAADGPVDEYMLPFEEEIGQHPSLEELQEVVVHKKMRPTIKDHWLKHPGLAQLCVTIEECWDHDAEARLSAGCVEERVSLIRRSVNGTTSDCLVSLVTSVTNVDLPPKESSI | In the reaction mixture comprising target peptide, bands were visualized at 3 Kd and 40 Kd, corresponding to labelled target peptide and autophosphorylated his-catActRIIB kinase, respectively | the reaction performed very well with the target peptide as a substrate | In the reaction mixture comprising MBP, bands were visualized at 18 Kd and 40 Kd, corresponding to labelled MBP and autophosphorylated his-catActRIIB kinase, respectively | the reaction with MBP unexpectedly yields a negative result |
| negative result | labelled MBP | MBP: Myelin Basic Protein, a commonly used substrate for kinase assays (protein, UniProt P02687 1-169, looked up) Myelin basic protein: AAQKRPSQRSKYLASASTMDHARHGFLPRHRDTGILDSLGRFFGSDRGAPKRGSGKDGHHAARTTHYGSLPQKAQGHRPQDENPVVHFFKNIVTPRTPPPSQGKGRGLSLSRFSWGAEGQKPGFGYGGRASDYKSAHKGLKGHDAQGTLSKIFKLGGRDSRSGSPMARR |  |  |  |  |

— patent US20030219846A1, “Assay for activity of the ActRIIB kinase” (Pfizer Inc., priority 2002, published 2003)
